{"source": "patent US20250101083A1", "about": "(XIAMEN UNIVERSITY, published 2025)", "key": {"[1]": {"target": "T1, pTT5hIgG1-S4 fusion protein (hepatitis B virus (HBV subtype B))", "T1 construct": "also called S4 (Cter); Cter", "experiment": "ELISA, fusion protein coated at 1 µg/mL, antibody at 1 µg/ml"}, "[2]": {"target": "T2, pTT5hIgG1-S5 fusion protein (hepatitis B virus (HBV subtype B))", "T2 construct": "also called S5 (Loop2-Cter); Loop2-Cter", "experiment": "ELISA, fusion protein coated at 1 µg/mL, antibody at 1 µg/ml"}}, "data": [{"binder": "125smIgG2 (Fc fusion) QLQLVESGGGLVQAGGSLRLSCAASGGTISAYAMGWFRQAPGKDREFVAGISWTTSSAYYTDSVKGRFTISRDFAKNTVYLQMNSLKPEDTAVYYCNDRVSDTVGFGSWGQGTQVTVSSPRVPITQNPCPPLKECPPCAAPDLLGGPSVFIFPPKIKDVLMISLSPMVTCVVVDVSEDDPDVQISWFVNNVEVHTAQTQTHREDYNSTLRVVSALPIQHQDWMSGKEFKCKVNNRALPSPIEKTISKPRGPVRAPQVYVLPPPAEEMTKKEFSLTCMITGFLPAEIAVDWTSNGRTEQNYKNTATVLDSDGSYFMYSKLRVQKSTWERGSLFACSVVHEGLHNHLTTKTISRSLGK", "values": [{"measurement": "binding result", "setting": "[1]", "value": "binds"}, {"measurement": "binding result", "setting": "[2]", "value": "binds"}]}]}
